Assay results published in publication PMC5436826, “The PET and LIM1-2 domains of testin contribute to intramolecular and homodimeric interactions” (PLoS ONE, 2017).

Key:
[1] = target: the molecule itself; experiment: SEC; untagged FL (1.5 mg or as specified) on calibrated Superdex 200 HR 10/30, buffer A, 0.8 ml/min; dimer and monomer fractions re-run; monomer-dimer equilibrium
[2] = target: T1, untagged PET^52-233 of testin (amino acids 52-233) (human, UniProt Q9UGI8-1 52-233); experiment: supernatans depletion assay; GST-LIM1-3 on glutathione-sepharose beads at 0.31-50 μM incubated with 2.5 μM PET^52-233 in buffer A, 1 hour at 4°C; unbound PET^52-233 quantified on Coomassie gels; fit 'one site saturation + nonspecific'; settings: both partners purified
T1 construct: pGEX-2TK; source: E. coli BL21(DE3) pLYSstar, purified on glutathione sepharose as GST fusion, GST removed with thrombin
T1 sequence (looked up): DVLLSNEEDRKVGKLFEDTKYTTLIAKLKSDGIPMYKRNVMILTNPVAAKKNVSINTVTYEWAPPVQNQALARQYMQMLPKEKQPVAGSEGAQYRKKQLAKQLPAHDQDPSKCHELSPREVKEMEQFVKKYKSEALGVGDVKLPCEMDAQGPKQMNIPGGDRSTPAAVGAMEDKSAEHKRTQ

[3] = target: T2, GST-FL (glutathione-S-transferase fused full length testin) (Homo sapiens (Human), UniProt Q9UGI8-1); experiment: GST pull-down with western blot
T2 chain: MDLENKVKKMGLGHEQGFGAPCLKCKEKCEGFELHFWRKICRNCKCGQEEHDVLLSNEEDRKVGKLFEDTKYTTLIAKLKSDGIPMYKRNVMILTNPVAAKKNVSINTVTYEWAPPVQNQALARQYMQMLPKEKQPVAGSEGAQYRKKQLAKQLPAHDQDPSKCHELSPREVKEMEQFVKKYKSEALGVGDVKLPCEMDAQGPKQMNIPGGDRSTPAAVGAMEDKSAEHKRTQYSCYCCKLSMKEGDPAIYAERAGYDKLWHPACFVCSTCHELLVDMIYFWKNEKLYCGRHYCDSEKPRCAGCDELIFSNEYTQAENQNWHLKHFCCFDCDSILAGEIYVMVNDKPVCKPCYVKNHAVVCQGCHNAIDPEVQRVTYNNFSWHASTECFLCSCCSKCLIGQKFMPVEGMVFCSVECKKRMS

B1: untagged recombinant full length (FL) testin (natural protein, human, UniProt Q9UGI8-1 1-421, looked up)
chain: MDLENKVKKMGLGHEQGFGAPCLKCKEKCEGFELHFWRKICRNCKCGQEEHDVLLSNEEDRKVGKLFEDTKYTTLIAKLKSDGIPMYKRNVMILTNPVAAKKNVSINTVTYEWAPPVQNQALARQYMQMLPKEKQPVAGSEGAQYRKKQLAKQLPAHDQDPSKCHELSPREVKEMEQFVKKYKSEALGVGDVKLPCEMDAQGPKQMNIPGGDRSTPAAVGAMEDKSAEHKRTQYSCYCCKLSMKEGDPAIYAERAGYDKLWHPACFVCSTCHELLVDMIYFWKNEKLYCGRHYCDSEKPRCAGCDELIFSNEYTQAENQNWHLKHFCCFDCDSILAGEIYVMVNDKPVCKPCYVKNHAVVCQGCHNAIDPEVQRVTYNNFSWHASTECFLCSCCSKCLIGQKFMPVEGMVFCSVECKKRMS
notes: testin, human, full length protein (residues 1-421), isoform 1 NP_056456.1; From pGEX-2TK; thrombin site between GST and FL; By SEC it is in a monomer-dimer equilibrium; also called non-tagged recombinant FL; source: E. coli BL21(DE3) pLYSstar, purified on glutathione sepharose as GST-FL, GST removed with thrombin
stoichiometry N [1]: 2

B2: GST-LIM1-3 of testin (domain or fragment)
chain: YSCYCCKLSMKEGDPAIYAERAGYDKLWHPACFVCSTCHELLVDMIYFWKNEKLYCGRHYCDSEKPRCAGCDELIFSNEYTQAENQNWHLKHFCCFDCDSILAGEIYVMVNDKPVCKPCYVKNHAVVCQGCHNAIDPEVQRVTYNNFSWHASTECFLCSCCSKCLIGQKFMPVEGMVFCSVECKKRMS
modifications: zinc-bound LIM domains; exact start is only in Fig 1A, so limits are taken from the UniProt LIM1 start (234, adjacent to PET 52-233) to the C-terminus (421); GST omitted
Kd [2]: 0.18 µM

B3: ena/VASP-like protein (Evl), soluble untagged (protein)
chain: MSEQSICQARASVMVYDDTSKKWVPIKPGQQGFSRINIYHNTASNTFRVVGVKLQDQQVVINYSIVKGLKYNQATPTFHQWRDARQVYGLNFASKEEATTFSNAMLFALNIMNSQEGGPSSQRQVQNGPSPDEMDIQRRQVMEQHQQQRQESLERRTSATGPILPPGHPSSAASAPVSCSGPPPPPPPPVPPPPTGATPPPPPPLPAGGAQGSSHDESSMSGLAAAIAGAKLRRVQRPEDASGGSSPSGTSKSDANRASSGGGGGGLMEEMNKLLAKRRKAASQSDKPAEKKEDESQMEDPSTSPSPGTRAASQPPNSSEAGRKPWERSNSVEKPVSSILSRTPSVAKSPEAKSPLQSQPHSRMKPAGSVNDMALDAFDLDRMKQEILEEVVRELHKVKEEIIDAIRQELSGISTT
binding result [3]: binds
